Assay results: patent US20220119534A1 (DRAGONFLY THERAPEUTICS, published 2022)

T1: human CLEC12A expressed on cells (human, UniProt Q5QGZ9 1-265)
T1 construct: Transduced isogenic cells or endogenous expression on AML cells; also called RMA-hCLEC12A; Ba/F3-hCLEC12A
T1 sequence: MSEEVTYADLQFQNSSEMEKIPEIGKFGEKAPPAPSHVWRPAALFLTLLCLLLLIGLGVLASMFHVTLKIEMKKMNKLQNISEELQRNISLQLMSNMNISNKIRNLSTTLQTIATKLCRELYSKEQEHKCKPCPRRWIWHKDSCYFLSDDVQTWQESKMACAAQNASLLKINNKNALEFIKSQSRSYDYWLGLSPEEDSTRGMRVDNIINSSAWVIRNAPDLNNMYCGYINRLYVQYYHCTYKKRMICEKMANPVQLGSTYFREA

T2: human CLEC12A on cells (HL60, PL21, Ba/F3-hCLEC12A) (human, UniProt Q5QGZ9 1-265)
T2 construct: Endogenous on the AML lines HL60 and PL21; brought into mouse Ba/F3 cells by retroviral transduction; The cell line stands under assay; also called CLL-1
T2 sequence: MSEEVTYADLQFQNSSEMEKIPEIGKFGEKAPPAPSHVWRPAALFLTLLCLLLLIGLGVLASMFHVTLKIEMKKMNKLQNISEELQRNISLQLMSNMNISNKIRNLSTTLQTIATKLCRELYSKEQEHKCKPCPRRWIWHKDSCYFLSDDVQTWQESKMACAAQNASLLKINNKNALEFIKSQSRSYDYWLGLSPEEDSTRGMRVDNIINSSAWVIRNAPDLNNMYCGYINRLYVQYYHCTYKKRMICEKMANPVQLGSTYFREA

T3: Human CLEC12A expressed on cells (Ba/F3-hCLEC12A, PL21, HL60) (human, UniProt Q5QGZ9 1-265)
T3 sequence: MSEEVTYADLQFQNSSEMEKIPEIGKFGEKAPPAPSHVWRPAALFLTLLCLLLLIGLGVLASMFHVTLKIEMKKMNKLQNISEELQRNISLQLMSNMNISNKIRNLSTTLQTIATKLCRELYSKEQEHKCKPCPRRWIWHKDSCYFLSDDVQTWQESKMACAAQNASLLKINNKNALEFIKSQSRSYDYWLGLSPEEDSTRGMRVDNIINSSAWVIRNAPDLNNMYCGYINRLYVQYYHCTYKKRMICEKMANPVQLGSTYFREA


How the values were obtained:
[1] = biological target: T1, human CLEC12A expressed on cells; assay: flow cytometry, PL21 cells
Procedure: The ability of the eight purified subcloned mAbs to bind to CLEC12A expressing cells was assessed by FACS analysis with human CLEC12A-positive PL21 cancer cell line.

[2] = biological target: T2, human CLEC12A on cells (HL60, PL21, …); assay: flow cytometry, HL60 cells
Procedure: (§1) 100,000 cells were seeded per well into a 96-well plate for FACS staining. Cells were washed with PBS. Cells were incubated in a 1:2000 dilution of live/dead dye in PBS for 15 minutes, then washed with FACS buffer. TriNKETs or mAbs were diluted into FACS buffer, and 50 μl containing diluted TriNKET or mAb was added to cells. Cells were incubated on ice for 20 minutes. After the incubation, cells were washed with FACS buffer. Anti-human IgG-Fc secondary antibody was diluted into FACS buffer, and 50 μl was added per well for detection of the bound TriNKETs or mAbs. Cells were incubated for 20 minutes on ice, then washed with FACS buffer. 50 μl of fixation buffer was added to each well, and cells were incubated for 10 minutes at room temperature. Cells were washed with FACS buffer and resuspended in FACS buffer for analysis with BD FACS Celesta SN #H66034400085, or BD FACS Celesta SN #H66034400160. Cells of interest were identified using FSC vs. SSC plot, and an appropriately shaped gate was drawn around the cells. Within the gated cells, doublet cells were removed by viewing FSC-H vs FSC-A plot. Within the single cell population, live cells were gated. Within the live gate, the mean fluorescence intensity (MFI) of each sample and the secondary-only control was calculated. Fold-over-background (FOB) was calculated as the ratio of test article MFI over secondary-only background MFI. Data were fit to a four-parameter non-linear regression curve using GraphPad Prism 7.0.

[3] = biological target: T2, human CLEC12A on cells (HL60, PL21, …); assay: flow cytometry, 40 nM, MFI after 2 h 37 C relative to 2 h on ice, HL60 cells
Procedure: (§2) Test articles were used at saturation concentrations and detected using a human IgG Fc-specific secondary antibody. Staining intensity after two hours at 37° C. was normalized to staining intensity of the same test article on cells incubated for two hours on ice to derive the percentage of CLEC12A retained on cell surfaces. Data bars represent the average of duplicate wells and error bars represent standard deviation.
(§3) 100,000 cells were seeded per well into duplicate 96-well plates for FACS staining. Cells were washed with FACS buffer. Test articles were diluted to 40 nM and were added to each of the duplicate plates. The first plate was incubated on ice for 2 hours, while the second plate was moved to 37° C. for two hours. After the incubation, cells were washed with PBS and cells were incubated in a 1:2000 dilution of live/dead dye in PBS for 15 minutes, then washed with FACS buffer. Anti-human IgG-Fc secondary antibody was diluted into FACS buffer, and 50 μl was added per well for detection of the bound TriNKETs or mAbs. Cells were incubated for 20 minutes on ice, then washed with FACS buffer. 50 μl of fixation buffer was added to each well, and cells were incubated for 10 minutes at room temperature. Cells were washed with FACS buffer and resuspended in FACS buffer for analysis with BD FACS Celesta SN #H66034400085, or BD FACS Celesta SN #H66034400160. Cells of interest were identified using FSC vs. SSC plot, and an appropriately shaped gate was drawn around the cells. Within the gated cells, doublet cells were removed by viewing FSC-H vs FSC-A plot. Within the single cell population, live cells were gated. […] Surface retention was then calculated as follows:

[4] = biological target: T2, human CLEC12A on cells (HL60, PL21, …); assay: flow cytometry, Ba/F3-hCLEC12A cells
Procedure: as §1

[5] = biological target: T2, human CLEC12A on cells (HL60, PL21, …); assay: flow cytometry, 40 nM, MFI after 2 h 37 C relative to 2 h on ice, PL21 cells
Procedure: as §2, §3

[6] = biological target: T2, human CLEC12A on cells (HL60, PL21, …); assay: flow cytometry, PL21 cells
Procedure: as §1

[7] = biological target: T3, Human CLEC12A expressed on cells …; assay: cell-based or functional assay

EC50 [1]	Max MFI [1]	EC50 [2]	FOB (fold over background) [2]	percent surface retention [3]	EC50 [4]	FOB (fold over background) [4]	percent surface retention [5]	EC50 [6]	FOB (fold over background) [6]	% Max, ADCP activity of M0 macrophages against PL21 cells [7]	EC50, ADCP activity of M0 macrophages against PL21 cells [7]	Binder
5 nM	265 MFI											Genentech-h6E7 (antibody, V domains shown) VH: EVQLVQSGAEVKKPGASVKVSCKASGYSFTDYYMHWVRQAPGQGLEWIGRINPYNGAAFYSQNFKDRVTLTVDTSTSTAYLELSSLRSEDTAVYYCAIERGADLEGYAMDYWGQGTLVTVSS VL: DIQMTQSPSSLSASVGDRVTITCRASQSVSTSSYNYMHWYQQKPGKPPKLLIKYASNLESGVPSRFSGSGSGTDFTLTISSLQPEDFATYYCQHSWEIPLTFGQGTKVEIK
2.02 nM	201 MFI											Merus-CLL1 (antibody, V domains shown) VH: EVQLVQSGAEVKKPGASVKVSCKASGYTFTSYYMHWVRQAPGQGLEWMGIINPSGGSTSYAQKFQGRVTMTRDTSTSTVYMELSSLRSEDTAVYYCARGNYGDEFDYWGQGTLVTVSS VL: not shown
		0.12 nM	53 fold	90%	0.67 nM	279 fold	92%	0.12 nM	15 fold			AB0305 mAb (Humanized 1739 anti-CLEC12A mAb) (antibody, IgG1, V domains shown, Parental hIgG1 mAb; also called parental mAb of AB0089) VH: QLQLQESGPGLVKPSETLSLTCTVSGFSLTNYGLHWIRQPPGKGLEWIGVIWVGGATDYNPSLKSRVTISVDTSKNQFSLKLSSVQAADTAVYYCAKGDYGDTLDYWGQGTLVTVSS VL: DIQMTQSPSSLSASVGDRVTITCHASQNINFWLSWYQQKPGKAPKLLIYEASNLHTGVPSRFSGSGSGTDFTLTISSLQPEDFATYYCQQSHSYPLTFGSGTKLEIK
		0.52 nM	51 fold	74%	1.4 nM	301 fold	79%	0.52 nM	13 fold			AB0037 mAb (Humanized 1602 anti-CLEC12A mAb) (antibody, V domains shown, Parental mAb of AB0237; also called humanized mAb 16B8.C8; parental mAb of AB0237) VH: QLQLQESGPGLVKPSETLSLTCTVSGFSLTNYGLHWIRQPPGKGLEWIGVIWSGGKTDYNPSLKSRVTISKDTSKNQFSLKLSSVQAADTAVYYCAKYDYDDSLDYWGQGTLVTVSS VL: DIQMTQSPSSLSASVGDRVTITCHASQNINFWLSWYQQKPGKAPKLLIYEASNLHTGVPSRFSGSGSGTRFTLTISSLQPEDIATYYCQQSHSYPLTFGGGTKLEIK
										12%	0.08 nM	AB0237 (F3'-1602 TriNKET) (bispecific antibody, human IgG1, kappa) QLQLQESGPGLVKPSETLSLTCTVSGFSLTNYGLHWIRQPPGKCLEWIGVIWSGGKTDYNPSLKSRVTISKDTSKNQFSLKLSSVQAADTAVYYCAKYDYDDSLDYWGQGTLVTVSSGGGGSGGGGSGGGGSGGGGSDIQMTQSPSSLSASVGDRVTITCHASQNINFWLSWYQQKPGKAPKLLIYEASNLHTGVPSRFSGSGSGTRFTLTISSLQPEDIATYYCQQSHSYPLTFGCGTKLEIKGSDKTHTCPPCPAPELLGGPSVFLFPPKPKDTLMISRTPEVTCVVVDVSHEDPEVKFNWYVDGVEVHNAKTKPREEQYNSTYRVVSVLTVLHQDWLNGKEYKCKVSNKALPAPIEKTISKAKGQPREPRVYTLPPCRDELTKNQVSLTCLVKGFYPSDIAVEWESNGQPENNYKTTPPVLVSDGSFTLYSKLTVDKSRWQQGNVFSCSVMHEALHNHYTQKSLSLSPG heavy: EVQLVESGGGLVKPGGSLRLSCAASGFTFSSYSMNWVRQAPGKGLEWVSSISSSSSYIYYADSVKGRFTISRDNAKNSLYLQMNSLRAEDTAVYYCARGAPIGAAAGWFDPWGQGTLVTVSSASTKGPSVFPLAPSSKSTSGGTAALGCLVKDYFPEPVTVSWNSGALTSGVHTFPAVLQSSGLYSLSSVVTVPSSSLGTQTYICNVNHKPSNTKVDKKVEPKSCDKTHTCPPCPAPELLGGPSVFLFPPKPKDTLMISRTPEVTCVVVDVSHEDPEVKFNWYVDGVEVHNAKTKPREEQYNSTYRVVSVLTVLHQDWLNGKEYKCKVSNKALPAPIEKTISKAKGQPREPQVCTLPPSRDELTENQVSLTCLVKGFYPSDIAVEWESNGQPENNYKTTPPVLDSDGSFFLYSWLTVDKSRWQQGNVFSCSVMHEALHNHYTQKSLSLSPG light: DIQMTQSPSSVSASVGDRVTITCRASQGISSWLAWYQQKPGKAPKLLIYAASSLQSGVPSRFSGSGSGTDFTLTISSLQPEDFATYYCQQGVSFPRTFGGGTKVEIKRTVAAPSVFIFPPSDEQLKSGTASVVCLLNNFYPREAKVQWKVDNALQSGNSQESVTEQDSKDSTYSLSSTLTLSKADYEKHKVYACEVTHQGLSSPVTKSFNRGEC
		1.01 nM	66 fold	106%	1.54 nM	341 fold	91%	0.52 nM	15 fold			F3'-1602 TriNKET (other, F3' format TriNKET; also called AB0237) QLQLQESGPGLVKPSETLSLTCTVSGFSLTNYGLHWIRQPPGKCLEWIGVIWSGGKTDYNPSLKSRVTISKDTSKNQFSLKLSSVQAADTAVYYCAKYDYDDSLDYWGQGTLVTVSSGGGGSGGGGSGGGGSGGGGSDIQMTQSPSSLSASVGDRVTITCHASQNINFWLSWYQQKPGKAPKLLIYEASNLHTGVPSRFSGSGSGTRFTLTISSLQPEDIATYYCQQSHSYPLTFGCGTKLEIKGSDKTHTCPPCPAPELLGGPSVFLFPPKPKDTLMISRTPEVTCVVVDVSHEDPEVKFNWYVDGVEVHNAKTKPREEQYNSTYRVVSVLTVLHQDWLNGKEYKCKVSNKALPAPIEKTISKAKGQPREPRVYTLPPCRDELTKNQVSLTCLVKGFYPSDIAVEWESNGQPENNYKTTPPVLVSDGSFTLYSKLTVDKSRWQQGNVFSCSVMHEALHNHYTQKSLSLSPG heavy: EVQLVESGGGLVKPGGSLRLSCAASGFTFSSYSMNWVRQAPGKGLEWVSSISSSSSYIYYADSVKGRFTISRDNAKNSLYLQMNSLRAEDTAVYYCARGAPIGAAAGWFDPWGQGTLVTVSSASTKGPSVFPLAPSSKSTSGGTAALGCLVKDYFPEPVTVSWNSGALTSGVHTFPAVLQSSGLYSLSSVVTVPSSSLGTQTYICNVNHKPSNTKVDKKVEPKSCDKTHTCPPCPAPELLGGPSVFLFPPKPKDTLMISRTPEVTCVVVDVSHEDPEVKFNWYVDGVEVHNAKTKPREEQYNSTYRVVSVLTVLHQDWLNGKEYKCKVSNKALPAPIEKTISKAKGQPREPQVCTLPPSRDELTENQVSLTCLVKGFYPSDIAVEWESNGQPENNYKTTPPVLDSDGSFFLYSWLTVDKSRWQQGNVFSCSVMHEALHNHYTQKSLSLSPG light: DIQMTQSPSSVSASVGDRVTITCRASQGISSWLAWYQQKPGKAPKLLIYAASSLQSGVPSRFSGSGSGTDFTLTISSLQPEDFATYYCQQGVSFPRTFGGGTKVEIKRTVAAPSVFIFPPSDEQLKSGTASVVCLLNNFYPREAKVQWKVDNALQSGNSQESVTEQDSKDSTYSLSSTLTLSKADYEKHKVYACEVTHQGLSSPVTKSFNRGEC
		1.08 nM	70 fold	147%	2.28 nM	434 fold	124%	0.34 nM	16 fold			AB0089 TriNKET (other, F3' format TriNKET) QLQLQESGPGLVKPSETLSLTCTVSGFSLTNYGLHWIRQPPGKCLEWIGVIWVGGATDYNPSLKSRVTISVDTSKNQFSLKLSSVQAADTAVYYCAKGDYGDTLDYWGQGTLVTVSSGGGGSGGGGSGGGGSGGGGSDIQMTQSPSSLSASVGDRVTITCHASQNINFWLSWYQQKPGKAPKLLIYEASNLHTGVPSRFSGSGSGTDFTLTISSLQPEDFATYYCQQSHSYPLTFGCGTKLEIKGSDKTHTCPPCPAPELLGGPSVFLFPPKPKDTLMISRTPEVTCVVVDVSHEDPEVKFNWYVDGVEVHNAKTKPREEQYNSTYRVVSVLTVLHQDWLNGKEYKCKVSNKALPAPIEKTISKAKGQPREPRVYTLPPCRDELTKNQVSLTCLVKGFYPSDIAVEWESNGQPENNYKTTPPVLVSDGSFTLYSKLTVDKSRWQQGNVFSCSVMHEALHNHYTQKSLSLSPG heavy: EVQLVESGGGLVKPGGSLRLSCAASGFTFSSYSMNWVRQAPGKGLEWVSSISSSSSYIYYADSVKGRFTISRDNAKNSLYLQMNSLRAEDTAVYYCARGAPIGAAAGWFDPWGQGTLVTVSSASTKGPSVFPLAPSSKSTSGGTAALGCLVKDYFPEPVTVSWNSGALTSGVHTFPAVLQSSGLYSLSSVVTVPSSSLGTQTYICNVNHKPSNTKVDKKVEPKSCDKTHTCPPCPAPELLGGPSVFLFPPKPKDTLMISRTPEVTCVVVDVSHEDPEVKFNWYVDGVEVHNAKTKPREEQYNSTYRVVSVLTVLHQDWLNGKEYKCKVSNKALPAPIEKTISKAKGQPREPQVCTLPPSRDELTENQVSLTCLVKGFYPSDIAVEWESNGQPENNYKTTPPVLDSDGSFFLYSWLTVDKSRWQQGNVFSCSVMHEALHNHYTQKSLSLSPG light: DIQMTQSPSSVSASVGDRVTITCRASQGISSWLAWYQQKPGKAPKLLIYAASSLQSGVPSRFSGSGSGTDFTLTISSLQPEDFATYYCQQGVSFPRTFGGGTKVEIKRTVAAPSVFIFPPSDEQLKSGTASVVCLLNNFYPREAKVQWKVDNALQSGNSQESVTEQDSKDSTYSLSSTLTLSKADYEKHKVYACEVTHQGLSSPVTKSFNRGEC
